Data on two molecules can be found in article PMC11189300, “Structure of the human KMN complex and implications for regulation of its assembly” (Nature Structural & Molecular Biology, 2024).

Details in all cases: both partners purified
In assay [1] the target is T1, KNL1 residues 2,021–2,342 (human, UniProt Q8NG31 2021-2342).
T1 construct: KNL1 (CASC5), human, C-terminal region, residues 2,021–2,342; numbering of isoform 1 of the CASC5 gene; also called KNL1_(2,021–2,342); Knl1_(2,021–2,342); source: E. coli BL21(DE3)-Codon-plus-RIPL, purified (glutathione-agarose, TEV cleavage, SEC)
T1 sequence (looked up): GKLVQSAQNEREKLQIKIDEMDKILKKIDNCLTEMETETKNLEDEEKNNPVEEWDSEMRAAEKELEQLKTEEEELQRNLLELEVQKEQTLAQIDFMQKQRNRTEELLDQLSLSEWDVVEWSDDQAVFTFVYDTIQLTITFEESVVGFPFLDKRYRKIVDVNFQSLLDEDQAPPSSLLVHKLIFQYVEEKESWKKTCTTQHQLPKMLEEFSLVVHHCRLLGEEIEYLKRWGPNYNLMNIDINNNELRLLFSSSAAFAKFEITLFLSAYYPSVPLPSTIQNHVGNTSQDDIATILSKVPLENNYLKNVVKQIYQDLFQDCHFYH
Kind of assay: SEC; KNL1 2,021–2,342, ZWINT, Mis12C and SPC24 109–197/SPC25 92–224 mixed equimolar on ice for at least 1 h; 50 mM HEPES pH 8.0, 150 mM NaCl, 2 mM TCEP; S200 5/150 column.

Assay [2] deals with T2, NSL1 (subunit of Mis12C in the KMN structure) (human, UniProt Q96IY1 1-281).
T2 construct: NSL1, human; source: Tnao38 insect cells (baculovirus), co-expressed in Mis12C, purified (Talon, SEC)
T2 sequence (looked up): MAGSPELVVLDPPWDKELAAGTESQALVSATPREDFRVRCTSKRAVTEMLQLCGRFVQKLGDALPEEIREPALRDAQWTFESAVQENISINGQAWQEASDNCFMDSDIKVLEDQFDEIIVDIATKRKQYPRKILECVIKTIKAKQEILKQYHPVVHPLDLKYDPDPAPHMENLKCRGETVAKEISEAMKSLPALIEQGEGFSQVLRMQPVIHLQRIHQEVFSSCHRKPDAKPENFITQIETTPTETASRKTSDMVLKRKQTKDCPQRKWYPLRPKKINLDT
Kind of assay: cryo-EM structure; eight-subunit KMN (full-length Mis12C, SPC24 109–197/SPC25 92–224, ZWINT, KNL1 2,021–2,342), 0.3 mg/ml with 0.003% Triton; reconstruction at 4.5 Å; model fitted from known structures and AF2 predictions and refined against the map.

The target of the next assay is T3, SPC25_(92–224) (human, UniProt Q9HBM1 92-224).
T3 construct: SPC25, human, residues 92–224 (RWD domain); source: E. coli BL21(DE3)-codon-plus-RIPL, co-purified with SPC24 (glutathione-agarose, 3C protease, SEC)
T3 sequence (looked up): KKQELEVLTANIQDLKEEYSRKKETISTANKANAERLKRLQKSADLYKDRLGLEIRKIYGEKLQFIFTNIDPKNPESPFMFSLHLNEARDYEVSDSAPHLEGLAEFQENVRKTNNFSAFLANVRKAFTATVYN
The description is as above.

For assay [3], the target named is T4, DSN1 (subunit of Mis12C in the KMN structure) (human, UniProt Q9H410 1-356).
T4 construct: DSN1, human; also called DSN1^SORT-HIS; source: Tnao38 insect cells (baculovirus), co-expressed in Mis12C, purified (Talon, SEC)
T4 sequence (looked up): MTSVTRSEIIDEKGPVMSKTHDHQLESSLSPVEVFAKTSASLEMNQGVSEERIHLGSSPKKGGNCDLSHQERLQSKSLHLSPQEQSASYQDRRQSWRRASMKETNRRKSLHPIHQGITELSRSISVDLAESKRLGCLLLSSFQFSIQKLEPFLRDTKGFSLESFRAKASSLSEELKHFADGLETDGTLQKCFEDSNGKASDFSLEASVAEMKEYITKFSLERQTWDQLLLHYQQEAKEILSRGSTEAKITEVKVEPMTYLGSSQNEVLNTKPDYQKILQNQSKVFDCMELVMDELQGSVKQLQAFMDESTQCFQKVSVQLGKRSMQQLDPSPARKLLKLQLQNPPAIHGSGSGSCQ
The description is as above.

B1: ZWINT (natural protein, human, UniProt O95229 1-277, looked up)
chain: MEAAETEAEAAALEVLAEVAGILEPVGLQEEAELPAKILVEFVVDSQKKDKLLCSQLQVADFLQNILAQEDTAKGLDPLASEDTSRQKAIAAKEQWKELKATYREHVEAIKIGLTKALTQMEEAQRKRTQLREAFEQLQAKKQMAMEKRRAVQNQWQLQQEKHLQHLAEVSAEVRERKTGTQQELDRVFQKLGNLKQQAEQERDKLQRYQTFLQLLYTLQGKLLFPEAEAEAENLPDDKPQQPTRPQEQSTGDTMGRDPGVSFKAVGLQPAGDVNLP
notes: ZWINT, human; Probably made like the mutants (GST fusion, 3C cleaved); ZWINT was in the cryo-EM sample but is not visible in the map; also called ZWINT^WT
B1: in assay [1], the binding result was “binds”.

B2: SPC24_(109–197) (domain or fragment, human, UniProt Q8NBT2 109-197, looked up)
chain: EELKEIEADLERQEKEVDEDTTVTIPSAVYVAQLYHQVSKIEWDYECEPGMVKGIHHGPSVAQPIHLDSTQLSRKFISDYLWSLVDTEW
notes: source: E. coli BL21(DE3)-codon-plus-RIPL, co-purified with SPC25 (glutathione-agarose, 3C protease, SEC)
Turning to B2, the binding result (in assay [2]; with SPC25_(92–224); in assay [3]) was “binds” in each case.
